# Source: IntAct's records for PubMed 19233177
# B1: Polycomb complex protein BMI-1 (Homo sapiens), P35226 (parent)
# chain: MHRTTRIKITELNPHLMCVLCGGYFIDATTIIECLHSFCKTCIVRYLETSKYCPICDVQVHKTRPLLNIRSDKTLQDIVYKLVPGLFKNEMKRRRDFYAAHPSADAANGSNEDRGEVADEDKRIITDDEIISLSIEFFDQNRLDRKVNKDKEKSKEEVNDKRYLRCPAAMTVMHLRKFLRSKMDIPNTFQIDVMYEEEPLKDYYTLMDIAYIYTWRRNGPLPLKYRVRPTCKRMKISHQRDGLTNAGELESDSGSDKANSPAGGIPSTSSCLPSPSTPVQSPHPQFPHISSTMNGTSNSPSGNHQSSFANRPRKSSVNGSSATSSG
# Variants of: B1
# Settings: with ubc_human UBC
row,effect of a mutation on the interaction,Variant
1,increasing interaction,MHRTTRIKITELNPHLMYVLCGGYFIDATTIIECLHSFCKTCIVRYLETSKYCPICDVQVHKTRPLLNIRSDKTLQDIVYKLVPGLFKNEMKRRRDFYAAHPSADAANGSNEDRGEVADEDKRIITDDEIISLSIEFFDQNRLDRKVNKDKEKSKEEVNDKRYLRCPAAMTVMHLRKFLRSKMDIPNTFQIDVMYEEEPLKDYYTLMDIAYIYTWRRNGPLPLKYRVRPTCKRMKISHQRDGLTNAGELESDSGSDKANSPAGGIPSTSSCLPSPSTPVQSPHPQFPHISSTMNGTSNSPSGNHQSSFANRPRKSSVNGSSATSSG [C18Y]
